Article PMC9124873 (BioImpacts : BI, 2021)

Tests used:
[1] = target: light chain of ranibizumab; experiment: ELISA
[2] = target: heavy chain of ranibizumab; experiment: ELISA

binding result [1]: no binding
binding result [2]: no binding
B1: recombinant human VEGF-A protein (ligand)
chain: APMAEGGGQNHHEVVKFMDVYQRSYCHPIETLVDIFQEYPDEIEYIFKPSCVPLMRCGGCCNDEGLECVPTEESNITMQIMRIKPHQGQHIGEMSFLQHNKCECRPKKDRARQENPCGPCSERRKHLFVQDPQTCKCSCKNTDSRCKARQLELNERTCRCDKPRR
